B1: Arrestin domain-containing protein 3 (Homo sapiens), Q96B67 (parent)
chain: MVLGKVKSLTISFDCLNDSNVPVYSSGDTVSGRVNLEVTGEIRVKSLKIHARGHAKVRWTESRNAGSNTAYTQNYTEEVEYFNHKDILIGHERDDDNSEEGFHTIHSGRHEYAFSFELPQTPLATSFEGRHGSVRYWVKAELHRPWLLPVKLKKEFTVFEHIDINTPSLLSPQAGTKEKTLCCWFCTSGPISLSAKIERKGYTPGESIQIFAEIENCSSRMVVPKAAIYQTQAFYAKGKMKEVKQLVANLRGESLSSGKTETWNGKLLKIPPVSPSILDCSIIRVEYSLMVYVDIPGAMDLFLNLPLVIGTIPLHPFGSRTSSVSSQCSMNMNWLSLSLPERPEAPPSYAEVVTEEQRRNNLAPVSACDDFERALQGPLFAYIQEFRFLPPPLYSEIDPNPDQSADDRPSCPSR

Experiments:
[1] = variants of: B1; settings: with nedd4_human NEDD4, P46934
hgs_human HGS, O14964 = variants of: B1; settings: with hgs_human HGS
[2] = variants of: B1; settings: with adrb2_human ADRB2, P07550
[3] = variants of: B1; settings: with adrb2_human ADRB2, P07550; remark: listed apart in the source

nedd4_human NEDD4, P46934, sequence (P46934 whole entry): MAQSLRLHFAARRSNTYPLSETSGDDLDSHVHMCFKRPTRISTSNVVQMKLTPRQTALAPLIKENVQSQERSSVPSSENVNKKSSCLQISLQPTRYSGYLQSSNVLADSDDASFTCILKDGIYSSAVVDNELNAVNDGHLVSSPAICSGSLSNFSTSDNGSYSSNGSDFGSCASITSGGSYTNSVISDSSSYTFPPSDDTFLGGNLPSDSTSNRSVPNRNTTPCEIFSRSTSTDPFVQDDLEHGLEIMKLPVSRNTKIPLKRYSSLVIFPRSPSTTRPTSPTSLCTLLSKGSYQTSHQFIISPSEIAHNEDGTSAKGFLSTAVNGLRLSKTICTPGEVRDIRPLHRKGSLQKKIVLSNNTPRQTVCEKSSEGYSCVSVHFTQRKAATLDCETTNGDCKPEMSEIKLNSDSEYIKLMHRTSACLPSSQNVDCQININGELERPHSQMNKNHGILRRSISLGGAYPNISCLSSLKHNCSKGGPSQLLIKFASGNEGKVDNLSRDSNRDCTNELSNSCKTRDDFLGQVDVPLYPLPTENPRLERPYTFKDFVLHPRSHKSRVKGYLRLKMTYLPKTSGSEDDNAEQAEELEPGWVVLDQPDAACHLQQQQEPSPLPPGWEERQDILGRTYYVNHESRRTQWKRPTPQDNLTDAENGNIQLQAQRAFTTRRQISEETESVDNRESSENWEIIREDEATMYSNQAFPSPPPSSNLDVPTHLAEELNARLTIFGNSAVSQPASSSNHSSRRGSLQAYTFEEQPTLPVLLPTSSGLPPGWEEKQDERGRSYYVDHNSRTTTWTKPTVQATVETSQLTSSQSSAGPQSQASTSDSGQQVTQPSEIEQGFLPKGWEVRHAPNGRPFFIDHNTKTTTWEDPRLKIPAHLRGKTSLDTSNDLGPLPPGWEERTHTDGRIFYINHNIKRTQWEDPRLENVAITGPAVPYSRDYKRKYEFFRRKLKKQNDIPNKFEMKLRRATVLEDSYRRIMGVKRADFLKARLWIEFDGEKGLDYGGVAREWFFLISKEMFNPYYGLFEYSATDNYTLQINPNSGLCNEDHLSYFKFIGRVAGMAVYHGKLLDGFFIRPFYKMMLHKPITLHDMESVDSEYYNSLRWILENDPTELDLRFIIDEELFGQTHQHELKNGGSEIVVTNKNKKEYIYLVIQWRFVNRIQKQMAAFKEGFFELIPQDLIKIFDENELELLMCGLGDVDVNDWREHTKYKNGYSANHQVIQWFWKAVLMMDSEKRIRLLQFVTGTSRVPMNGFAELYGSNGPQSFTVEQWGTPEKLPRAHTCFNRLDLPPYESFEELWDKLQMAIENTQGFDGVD
hgs_human HGS, O14964, sequence (O14964 whole entry): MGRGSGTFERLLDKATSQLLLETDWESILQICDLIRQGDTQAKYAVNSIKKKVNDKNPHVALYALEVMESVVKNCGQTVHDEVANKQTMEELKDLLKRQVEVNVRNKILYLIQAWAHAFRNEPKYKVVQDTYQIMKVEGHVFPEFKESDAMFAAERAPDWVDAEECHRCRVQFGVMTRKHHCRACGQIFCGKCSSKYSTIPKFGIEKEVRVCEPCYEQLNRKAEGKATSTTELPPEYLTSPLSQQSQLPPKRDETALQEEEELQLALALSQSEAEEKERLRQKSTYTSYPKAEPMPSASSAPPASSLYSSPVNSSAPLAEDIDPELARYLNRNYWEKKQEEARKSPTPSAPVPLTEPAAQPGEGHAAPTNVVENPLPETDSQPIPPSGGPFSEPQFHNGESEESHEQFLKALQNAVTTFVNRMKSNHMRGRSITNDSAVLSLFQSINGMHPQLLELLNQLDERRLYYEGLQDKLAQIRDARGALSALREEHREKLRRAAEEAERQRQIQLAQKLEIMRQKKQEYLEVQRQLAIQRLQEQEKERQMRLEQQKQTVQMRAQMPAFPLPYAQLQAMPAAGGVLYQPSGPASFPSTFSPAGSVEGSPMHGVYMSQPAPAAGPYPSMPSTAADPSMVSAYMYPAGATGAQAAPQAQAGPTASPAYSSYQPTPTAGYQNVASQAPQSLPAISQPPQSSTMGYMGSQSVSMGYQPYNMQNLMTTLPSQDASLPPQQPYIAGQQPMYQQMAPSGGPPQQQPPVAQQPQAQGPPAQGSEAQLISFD

| Variant | effect of a mutation on the interaction [1] | effect of a mutation on the interaction (hgs_human HGS, O14964) | effect of a mutation on the interaction [2] | effect of a mutation on the interaction [3] |
| --- | --- | --- | --- | --- |
| P391A | disrupting interaction | disrupting interaction | decreasing interaction | disrupting interaction |
| P347A | disrupting interaction | disrupting interaction | decreasing interaction | disrupting interaction |
| Y394A | disrupting interaction | disrupting interaction | decreasing interaction | disrupting interaction |
| P392A | disrupting interaction | disrupting interaction | decreasing interaction | disrupting interaction |
| P346A | disrupting interaction | disrupting interaction | decreasing interaction | disrupting interaction |
| Y349A | disrupting interaction | disrupting interaction | decreasing interaction | disrupting interaction |

Source: IntAct's records for PubMed 23208550
